For the assay, the target named is T1, CD3ε homodimer protein (human, UniProt P07766 23-126, limits assumed, sulfo-tag or biotin label in the ECL assays; amine-coupled to the chip in SPR).
T1 construct: also called human CD3ε homodimer protein; CD3 (CD3ε)
The experiment in a line: SPR Biacore T200; CD3ε homodimer on CM4 chip.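 Also: Single-residue variant antibodies injected as analyte over CD3ε homodimer immobilized by amine coupling, run at 25 °C in HBS-EP+ buffer.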 In general terms: SPR reads the build-up and loss of mass on a sensor chip optically.

This is an account of results in patent publication US20260049138A1 (Chugai, published 2026).

Numbering of substitutions follows the chain as printed. Numbers in names are those of the source.

T1 sequence (P07766 23-126 limits assumed): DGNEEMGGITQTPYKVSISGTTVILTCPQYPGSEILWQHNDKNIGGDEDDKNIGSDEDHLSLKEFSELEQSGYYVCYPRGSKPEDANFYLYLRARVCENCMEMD
Protocol: An appropriate amount of CD3ε homodimer protein was immobilized onto Sensor chip CM4 (GE Healthcare Japan Corp.) by the amine coupling method. Then, the antibody having an appropriate concentration was injected thereto as an analyte and allowed to interact with the CD3ε homodimer protein on the sensor chip. Then, the sensor chip was regenerated by the injection of 10 mmol/L glycine-HCl (pH 1.5). The assay was conducted at 25° C., and HBS-EP+ (GE Healthcare Japan Corp.) was used as a running buffer. […] Each parameter was calculated using Biacore T200 Evaluation Software (GE Healthcare Japan Corp.).

B1: CE115HA000 K52D one-arm antibody (antibody, human IgG1, kappa, L234A L235A, N297A, name in Kabat numbering)
heavy: QVQLVESGGGVVQPGRSLRLSCAASGFTFSNAWMHWVRQAPGKGLEWVAQIDAKSNNYATYYAESVKGRFTISRDDSKNSLYLQMNSLKTEDTAVYYCRYVHYGAYYGVDAWGQGTTVTVSSASTKGPSVFPLAPSSKSTSGGTAALGCLVKDYFPEPVTVSWNSGALTSGVHTFPAVLQSSGLYSLSSVVTVPSSSLGTQTYICNVNHKPSNTKVDKKVEPKSCDKTHTCPPCPAPEAAGGPSVFLFPPKPKDTLMISRTPEVTCVVVDVSHEDPEVKFNWYVDGVEVHNAKTKPREEQYASTYRVVSVLTVLHQDWLNGKEYKCKVSNKALPAPIEKTISKAKGQPREPQVYTLPPSRCELTKNQVSLSCAVKGFYPSDIAVEWESNGQPENNYKTTPPVLDSDGSFFLVSKLTVDKSRWQQGNVFSCSVMHEALHNHYTQKSLSLSPDYKDDDDK
chain: EPKSSDKTHTCPPCPAPELLGGPSVFLFPPKPKDTLMISRTPEVTCVVVDVSHEDPEVKFNWYVDGVEVHNAKTKPREEQYNSTYRVVSVLTVLHQDWLNGKEYKCKVSNKALPAPIEKTISKAKGQPREPQVCTLPPSRDELTKNQVSLWCLVKGFYPSDIAVEWESNGQPENNYKTTPPVLDSDGSFFLYSKLTVDKSRWQQGNVFSCSVMHEALHNRYTQKSLSLSP
light: DIVMTQSPLSLPVTPGEPASISCRSSQSLVHSNRNTYLHWYQQKPGQAPRLLIYKVSNRFSGVPDRFSGSGSGTDFTLKISRVEAEDVGVYYCGQGTQVPYTFGQGTKLEIKRTVAAPSVFIFPPSDEQLKSGTASVVCLLNNFYPREAKVQWKVDNALQSGNSQESVTEQDSKDSTYSLSSTLTLSKADYEKHKVYACEVTHQGLSSPVTKSFNRGEC
Regarding B1, the “ratio of amounts bound Z=Y/X (altered form / CE115HA000)” value turned out to be 0.25.

B2: CE115HA000 K52E one-arm antibody (antibody, human IgG1, kappa, L234A L235A, N297A, name in Kabat numbering)
heavy: B1 heavy with D52E
chain: B1 chain
light: B1 light
Consider B2, for which the “ratio of amounts bound Z=Y/X (altered form / CE115HA000)” value was 0.26.

B3: CE115HA000 K52bS one-arm antibody (antibody, human IgG1, kappa, L234A L235A, N297A, name in Kabat numbering)
heavy: B1 heavy with D52K, K54S
chain: B1 chain
light: B1 light
With B3, the “ratio of amounts bound Z=Y/X (altered form / CE115HA000)” value came to 0.68.

B4: CE115HA000 K52bQ one-arm antibody (antibody, human IgG1, kappa, L234A L235A, N297A, name in Kabat numbering)
heavy: B1 heavy with D52K, K54Q
chain: B1 chain
light: B1 light
For B4, the “ratio of amounts bound Z=Y/X (altered form / CE115HA000)” value is 0.6.

B5: CE115HA000 K52H one-arm antibody (antibody, human IgG1, kappa, L234A L235A, N297A, name in Kabat numbering)
heavy: B1 heavy with D52H
chain: B1 chain
light: B1 light
In the case of B5, the “ratio of amounts bound Z=Y/X (altered form / CE115HA000)” value worked out at 0.22.

B6: CE115HA000 K52W one-arm antibody (antibody, human IgG1, kappa, L234A L235A, N297A, name in Kabat numbering)
heavy: B1 heavy with D52W
chain: B1 chain
light: B1 light
With B6, the “ratio of amounts bound Z=Y/X (altered form / CE115HA000)” value was found to be 0.22.

B7: CE115HA000 K64E one-arm antibody (antibody, human IgG1, kappa, L234A L235A, N297A, name in Kabat numbering)
heavy: B1 heavy with D52K, K67E
chain: B1 chain
light: B1 light
Take B7: the “ratio of amounts bound Z=Y/X (altered form / CE115HA000)” value came to 0.74.

B8: CE115HA000 K52R one-arm antibody (antibody, human IgG1, kappa, L234A L235A, N297A, name in Kabat numbering)
heavy: B1 heavy with D52R
chain: B1 chain
light: B1 light
For the molecule B8, the “ratio of amounts bound Z=Y/X (altered form / CE115HA000)” value was 0.91.

B9: CE115HA000 K64A one-arm antibody (antibody, human IgG1, kappa, L234A L235A, N297A, name in Kabat numbering)
heavy: B1 heavy with D52K, K67A
chain: B1 chain
light: B1 light
B9: the “ratio of amounts bound Z=Y/X (altered form / CE115HA000)” value is 0.82.

B10: CE115HA000 K52bL one-arm antibody (antibody, human IgG1, kappa, L234A L235A, N297A, name in Kabat numbering)
heavy: B1 heavy with D52K, K54L
chain: B1 chain
light: B1 light
Consider B10, for which the “ratio of amounts bound Z=Y/X (altered form / CE115HA000)” value worked out at 0.61.

B11: CE115HA000 K52I one-arm antibody (antibody, human IgG1, kappa, L234A L235A, N297A, name in Kabat numbering)
heavy: B1 heavy with D52I
chain: B1 chain
light: B1 light
Take B11: the “ratio of amounts bound Z=Y/X (altered form / CE115HA000)” value amounted to 0.33.

B12: CE115HA000 K52bN one-arm antibody (antibody, human IgG1, kappa, L234A L235A, N297A, name in Kabat numbering)
heavy: B1 heavy with D52K, K54N
chain: B1 chain
light: B1 light
Take B12: the “ratio of amounts bound Z=Y/X (altered form / CE115HA000)” value was 0.27.

B13: CE115HA000 K52S one-arm antibody (antibody, human IgG1, kappa, L234A L235A, N297A, name in Kabat numbering)
heavy: B1 heavy with D52S
chain: B1 chain
light: B1 light
On to B13, for which the “ratio of amounts bound Z=Y/X (altered form / CE115HA000)” value came to 0.28.

B14: CE115HA000 K64D one-arm antibody (antibody, human IgG1, kappa, L234A L235A, N297A, name in Kabat numbering)
heavy: B1 heavy with D52K, K67D
chain: B1 chain
light: B1 light
With B14, the “ratio of amounts bound Z=Y/X (altered form / CE115HA000)” value was found to be 0.72.

B15: CE115HA000 K52bA one-arm antibody (antibody, human IgG1, kappa, L234A L235A, N297A, name in Kabat numbering)
heavy: B1 heavy with D52K, K54A
chain: B1 chain
light: B1 light
In the case of B15, the “ratio of amounts bound Z=Y/X (altered form / CE115HA000)” value worked out at 0.67.

B16: CE115HA000 K52F one-arm antibody (antibody, human IgG1, kappa, L234A L235A, N297A, name in Kabat numbering)
heavy: B1 heavy with D52F
chain: B1 chain
light: B1 light
Regarding B16, the “ratio of amounts bound Z=Y/X (altered form / CE115HA000)” value came to 0.17.

B17: CE115HA000 K52bY one-arm antibody (antibody, human IgG1, kappa, L234A L235A, N297A, name in Kabat numbering)
heavy: B1 heavy with D52K, K54Y
chain: B1 chain
light: B1 light
As for B17, the “ratio of amounts bound Z=Y/X (altered form / CE115HA000)” value was found to be 0.74.

B18: CE115HA000 K52N one-arm antibody (antibody, human IgG1, kappa, L234A L235A, N297A, name in Kabat numbering)
heavy: B1 heavy with D52N
chain: B1 chain
light: B1 light
As to B18, the “ratio of amounts bound Z=Y/X (altered form / CE115HA000)” value turned out to be 0.34.

B19: CE115HA000 K52bR one-arm antibody (antibody, human IgG1, kappa, L234A L235A, N297A, name in Kabat numbering)
heavy: B1 heavy with D52K, K54R
chain: B1 chain
light: B1 light
On to B19, for which the “ratio of amounts bound Z=Y/X (altered form / CE115HA000)” value came out at 1.11.

B20: CE115HA000 K52bD one-arm antibody (antibody, human IgG1, kappa, L234A L235A, N297A, name in Kabat numbering)
heavy: B1 heavy with D52K, K54D
chain: B1 chain
light: B1 light
As to B20, the “ratio of amounts bound Z=Y/X (altered form / CE115HA000)” value came to 0.27.

B21: CE115HA000 K52Y one-arm antibody (antibody, human IgG1, kappa, L234A L235A, N297A, name in Kabat numbering)
heavy: B1 heavy with D52Y
chain: B1 chain
light: B1 light
Consider B21, for which the “ratio of amounts bound Z=Y/X (altered form / CE115HA000)” value is 0.18.
